Values quoted from earlier work, collected in article PMC11695321.

Legend:
Assay in all cases: SPR
IKKα (Homo sapiens) = IKKα (Homo sapiens) (UniProt O15111)
IKKβ (Homo sapiens) = IKKβ (Homo sapiens) (UniProt O14920)
NF-κB p50 (Homo sapiens) = NF-κB p50 (Homo sapiens) (UniProt P19838)
UniProt P19838, sequence (P19838 1-433): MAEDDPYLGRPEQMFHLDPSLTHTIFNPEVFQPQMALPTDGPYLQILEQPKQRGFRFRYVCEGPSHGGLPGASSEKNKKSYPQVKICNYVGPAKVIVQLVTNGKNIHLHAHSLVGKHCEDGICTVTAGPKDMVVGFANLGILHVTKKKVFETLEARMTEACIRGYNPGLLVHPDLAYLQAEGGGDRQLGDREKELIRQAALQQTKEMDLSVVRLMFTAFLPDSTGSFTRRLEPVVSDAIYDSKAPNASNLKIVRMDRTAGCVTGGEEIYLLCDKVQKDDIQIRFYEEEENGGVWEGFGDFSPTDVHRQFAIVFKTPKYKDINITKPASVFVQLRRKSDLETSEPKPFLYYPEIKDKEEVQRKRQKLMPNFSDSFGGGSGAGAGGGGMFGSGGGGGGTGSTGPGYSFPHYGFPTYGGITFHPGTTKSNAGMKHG

UniProt O15111, sequence (O15111 whole entry): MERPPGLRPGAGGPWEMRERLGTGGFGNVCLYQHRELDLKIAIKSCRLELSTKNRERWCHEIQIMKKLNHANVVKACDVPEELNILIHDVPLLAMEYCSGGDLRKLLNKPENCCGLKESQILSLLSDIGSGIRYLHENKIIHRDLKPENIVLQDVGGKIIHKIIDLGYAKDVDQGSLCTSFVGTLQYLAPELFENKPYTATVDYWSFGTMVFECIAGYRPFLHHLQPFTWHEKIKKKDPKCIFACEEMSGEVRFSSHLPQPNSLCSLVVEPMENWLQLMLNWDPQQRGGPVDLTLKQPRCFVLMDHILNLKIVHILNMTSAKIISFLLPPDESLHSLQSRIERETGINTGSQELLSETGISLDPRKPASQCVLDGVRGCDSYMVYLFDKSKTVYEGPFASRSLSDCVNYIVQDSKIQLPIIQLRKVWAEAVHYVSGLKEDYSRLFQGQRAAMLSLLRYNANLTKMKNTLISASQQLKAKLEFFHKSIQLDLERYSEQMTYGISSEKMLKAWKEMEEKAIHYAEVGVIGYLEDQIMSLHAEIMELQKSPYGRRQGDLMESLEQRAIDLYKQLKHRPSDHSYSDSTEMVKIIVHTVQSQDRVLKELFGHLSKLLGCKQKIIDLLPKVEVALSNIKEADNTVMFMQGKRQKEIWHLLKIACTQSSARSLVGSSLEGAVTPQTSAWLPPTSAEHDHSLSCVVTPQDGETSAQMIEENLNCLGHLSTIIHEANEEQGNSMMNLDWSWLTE
UniProt O14920, sequence (O14920 whole entry): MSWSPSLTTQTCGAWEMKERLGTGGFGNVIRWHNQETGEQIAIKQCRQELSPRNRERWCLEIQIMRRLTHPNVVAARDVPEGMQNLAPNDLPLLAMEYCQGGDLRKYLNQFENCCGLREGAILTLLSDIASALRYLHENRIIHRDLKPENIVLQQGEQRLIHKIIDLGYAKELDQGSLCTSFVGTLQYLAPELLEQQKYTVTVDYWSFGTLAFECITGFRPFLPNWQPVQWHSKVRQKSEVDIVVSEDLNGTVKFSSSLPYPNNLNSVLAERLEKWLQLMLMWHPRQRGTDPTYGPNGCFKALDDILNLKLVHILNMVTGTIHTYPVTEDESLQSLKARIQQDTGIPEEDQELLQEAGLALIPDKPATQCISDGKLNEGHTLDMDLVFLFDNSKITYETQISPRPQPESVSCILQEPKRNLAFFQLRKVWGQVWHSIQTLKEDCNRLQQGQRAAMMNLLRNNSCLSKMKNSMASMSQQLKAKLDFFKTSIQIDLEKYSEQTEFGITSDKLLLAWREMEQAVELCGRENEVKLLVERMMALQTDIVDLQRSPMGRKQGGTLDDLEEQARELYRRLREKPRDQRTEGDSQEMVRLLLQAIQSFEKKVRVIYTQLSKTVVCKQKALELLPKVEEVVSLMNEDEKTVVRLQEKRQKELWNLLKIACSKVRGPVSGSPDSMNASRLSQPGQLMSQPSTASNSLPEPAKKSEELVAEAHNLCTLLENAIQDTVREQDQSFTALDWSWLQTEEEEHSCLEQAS

In the case of melittin (from UniProt P01501), the Kd (IKKα (Homo sapiens)) is given as 4.6 µM, the Kd (IKKβ (Homo sapiens)) is given as 1.34 nM and the Kd (NF-κB p50 (Homo sapiens)) is given as 1.01 nM.
